In patent US20200045945A1:
“And” between values parts separate entries of the source, which are not always exact repeats. Equal values may be shown once. One block for each substance: values may come before it.

Legend:
[1] = molecular target: ΔSRCR5 CD163 (porcine CD163 with the SRCR5 domain deleted) (pig) (UniProt Q2VL90); assay: cell-based or functional assay
[2] = molecular target: CD163 on macrophages of heterozygous pigs 627 and 634 (both the full-length and the ΔSRCR5 protein); assay: cell-based or functional assay
[3] = molecular target: wild type (full-length, unmodified) porcine CD163 (pig) (UniProt Q2VL90); assay: cell-based or functional assay
[4] = molecular target: CD163 on macrophages of all six pigs 628, 633, 627, 634, 629, 630 (wild type, heterozygous and ΔSRCR5); assay: flow cytometry on PAMs, isotype control staining of the six pigs
[5] = molecular target: CD163 on macrophages of all six pigs 628, 633, 627, 634, 629, 630 (wild type, heterozygous and ΔSRCR5); assay: flow cytometry on PMMs, isotype control staining of the six pigs
[6] = molecular target: CD163 on macrophages of all six pigs 628, 633, 627, 634, 629, 630 (wild type, heterozygous and ΔSRCR5); assay: cell-based or functional assay
[7] = molecular target: ΔSRCR5 CD163 (porcine CD163 with the SRCR5 domain deleted) (pig) (UniProt Q2VL90); assay: flow cytometry on PAMs of pig 630 (ΔSRCR5)
[8] = molecular target: ΔSRCR5 CD163 (porcine CD163 with the SRCR5 domain deleted) (pig) (UniProt Q2VL90); assay: flow cytometry on PMMs of pig 629 (ΔSRCR5)
[9] = molecular target: wild type (full-length, unmodified) porcine CD163 (pig) (UniProt Q2VL90); assay: flow cytometry on PAMs of pig 628 (wild type)
[10] = molecular target: CD163 on macrophages of heterozygous pigs 627 and 634 (both the full-length and the ΔSRCR5 protein); assay: flow cytometry on PAMs of pig 634 (heterozygous)
[11] = molecular target: CD163 on macrophages of heterozygous pigs 627 and 634 (both the full-length and the ΔSRCR5 protein); assay: flow cytometry on PAMs of pig 627 (heterozygous)
[12] = molecular target: ΔSRCR5 CD163 (porcine CD163 with the SRCR5 domain deleted) (pig) (UniProt Q2VL90); assay: flow cytometry on PAMs of pig 629 (ΔSRCR5)
[13] = molecular target: CD163 on macrophages of heterozygous pigs 627 and 634 (both the full-length and the ΔSRCR5 protein); assay: flow cytometry on PMMs of pig 627 (heterozygous)
[14] = molecular target: wild type (full-length, unmodified) porcine CD163 (pig) (UniProt Q2VL90); assay: flow cytometry on PMMs of pig 628 (wild type)
[15] = molecular target: wild type (full-length, unmodified) porcine CD163 (pig) (UniProt Q2VL90); assay: flow cytometry on PAMs of pig 633 (wild type)
[16] = molecular target: wild type (full-length, unmodified) porcine CD163 (pig) (UniProt Q2VL90); assay: flow cytometry on PMMs of pig 633 (wild type)
[17] = molecular target: CD163 on macrophages of heterozygous pigs 627 and 634 (both the full-length and the ΔSRCR5 protein); assay: flow cytometry on PMMs of pig 634 (heterozygous)
[18] = molecular target: ΔSRCR5 CD163 (porcine CD163 with the SRCR5 domain deleted) (pig) (UniProt Q2VL90); assay: flow cytometry on PMMs of pig 630 (ΔSRCR5)

medians of green fluorescence, HbAF488-Hp uptake into PMMs by FACS, animal 629 (ΔSRCR5) [1]: 340
medians of green fluorescence, HbAF488-Hp uptake into PMMs by FACS, animal 630 (ΔSRCR5) [1]: 405
medians of green fluorescence, HbAF488-Hp uptake into PMMs by FACS, animal 627 (heterozygous) [2]: 329
medians of green fluorescence, HbAF488-Hp uptake into PMMs by FACS, animal 634 (heterozygous) [2]: 366
medians of green fluorescence, HbAF488-Hp uptake into PMMs by FACS, animal 628 (wild type) [3]: 329
medians of green fluorescence, HbAF488-Hp uptake into PMMs by FACS, animal 633 (wild type) [3]: 305
Substance: Alexa Fluor 488-labelled hemoglobin-haptoglobin complex (HbAF488-Hp) (from UniProt P69905 2-142; P68871 2-147; P00738 19-406) (ligand)

median of fluorescence intensity [4]: 2.13 to 3.84
median of fluorescence intensity [5]: 1.88 to 3.79
Substance: mouse IgG1 or IgG2b negative control (AbD Serotec, MCA928PE, MCA691F, or Sigma, F6397) (antibody)

HO-1 mRNA upregulation in PMMs after 24 h with Hb-Hp, RT-qPCR [6]: 2 fold and 6 fold
Substance: hemoglobin-haptoglobin complex (Hb-Hp) (from UniProt P69905 2-142; P68871 2-147; P00738 19-406) (ligand)

median of CD163 fluorescence intensity [7]: 26.7
median of CD163 fluorescence intensity [8]: 18.8
median of CD163 fluorescence intensity [9]: 35.9
median of CD163 fluorescence intensity [10]: 24.4
median of CD163 fluorescence intensity [11]: 26.4
median of CD163 fluorescence intensity [12]: 17.9
median of CD163 fluorescence intensity [13]: 18.3
median of CD163 fluorescence intensity [14]: 23.3
median of CD163 fluorescence intensity [15]: 22.7
median of CD163 fluorescence intensity [16]: 16.7
median of CD163 fluorescence intensity [17]: 16.5
median of CD163 fluorescence intensity [18]: 17.2
Substance: mouse anti-pig CD163 antibody, clone 2A10/11 (AbD Serotec, MCA2311PE)
